# Reference: US9359418B2, “Inhibitors of the T cell-specific alternative p38 activation pathway and methods of use” (The United States of America, as represented by the …, priority 2012, dated 2016)
# No end group written: not given here.
# Target: recombinant p38α (Homo sapiens, UniProt Q16539)
# Assay: GST pull-down of recombinant p38α by truncated Gadd45α portions
# Format: binding
# Conditions: Gadd45α portions fused to GST, in vitro
# Excerpt: This example describes a Gadd45α 71-85 polypeptide fused to a cell-penetrating peptide (11R) and its ability to block the T cell-specific alternative p38 activation pathway. The minimal region of Gadd45α capable of binding to p38 was identified by fusing various truncated portions of Gadd45α to GST and using the product to pull down recombinant p38α in vitro.
# Chain of recombinant p38α (Q16539 whole entry, the tested form may be a part): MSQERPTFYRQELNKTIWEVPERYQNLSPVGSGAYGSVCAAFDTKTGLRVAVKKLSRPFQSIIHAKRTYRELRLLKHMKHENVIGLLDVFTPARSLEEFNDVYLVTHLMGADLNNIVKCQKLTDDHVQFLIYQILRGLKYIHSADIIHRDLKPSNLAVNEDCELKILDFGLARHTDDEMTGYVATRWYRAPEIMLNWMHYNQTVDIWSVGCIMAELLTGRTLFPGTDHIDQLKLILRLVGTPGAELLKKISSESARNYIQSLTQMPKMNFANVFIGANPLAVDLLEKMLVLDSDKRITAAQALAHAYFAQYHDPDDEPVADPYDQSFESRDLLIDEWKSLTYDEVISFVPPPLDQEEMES
substance,measurement,value
"71-85 fragment: residues 71-85 of Gadd45α fused to GST, used to pull down recombinant p38α (LQIHFTLIQAFCCEN; cysteine pairing not given here; also: fused to GST; UniProt P24522 71-85, looked up, fragment)",pull down of recombinant p38α,pulled down p38α as well as the full length protein
